In assay [1] the target is fluorescein-labeled P5 peptide (F-P5) (chicken). Kind of assay: fluorescence polarisation. For orientation: Polarisation of emitted light reports the rotation of a fluorescent probe.
The target is the same in assay [2]. Kind of assay: fluorescence polarisation. This is another data set of the same source.
For assay [3], the target named is fluorescein-labeled Isu1 peptide (F-Isu1) (S. cerevisiae). Kind of assay: fluorescence polarisation.
Assay [4] deals with T1, Ssc1 (mitochondrial heat shock protein 70 of Saccharomyces cerevisiae) (S. cerevisiae, UniProt P0CS90 24-654). Kind of assay: fluorescence polarisation.
Assay [5] concerns the target T1, Ssc1 (mitochondrial heat shock protein …). Description: fluorescence polarisation. This is another data set of the same source.
For assay [6], the target named is T2, substrate-binding domain of Ssc1, Ssc1(418–654) (S. cerevisiae, UniProt P0CS90 418-654).
T2 sequence (looked up): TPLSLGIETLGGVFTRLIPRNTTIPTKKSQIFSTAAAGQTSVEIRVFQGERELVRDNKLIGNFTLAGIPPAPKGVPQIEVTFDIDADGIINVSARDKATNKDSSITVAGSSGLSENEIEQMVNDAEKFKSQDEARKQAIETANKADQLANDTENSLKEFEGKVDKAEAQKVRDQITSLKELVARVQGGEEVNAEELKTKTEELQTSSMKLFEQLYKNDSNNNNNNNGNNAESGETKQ
Description: fluorescence polarisation.

The target in assay [7] is T1, Ssc1 (mitochondrial heat shock protein …). Description: fluorescence polarisation. This is another data set of the same source.
Assay [8] shares this target. Kind of assay: pull-down.
Assay [9] has the same target. Kind of assay: fluorescence polarisation. The source holds these as a separate data set.

Among the data in publication PMC3099715 (The Journal of Biological Chemistry, 2011) are Kd and koff values, retold here.

Where two headings read alike, the source gives them in different places. No end group written: not given here. fluorescein = fluorescein fluorophore covalently attached to the cysteine residue

One may read the Kd as the free concentration of one partner at which half of the binding sites on the other are occupied at equilibrium, for simple one-to-one binding. Lower therefore signals tighter binding. Molecule “SBD_(Ssc1)-(ABCD)_(Ssc3) chimera (variable domain of the SBD of Ssc1 replaced with that of Ssc3) (domain or fragment)” returned a dissociation constant (Kd) in [1] of 22.7 µM.
Broadly, the koff is a measure of how fast the partners let go of each other. Lower therefore signals slow dissociation. With “Ssc3 (mitochondrial Hsp70 paralog of Saccharomyces cerevisiae) (natural protein)”, the dissociation constant Kd in assay [2] is 26.3 µM; in assay [1] it was 30.1 µM; in assay [3], over 90 µM. This molecule also showed a koff in assay [1] of 0.244 s⁻¹.
With CALLLSAPRR (fluorescein fluorophore covalently attached to the cysteine residue) [fluorescein-labeled P5 peptide (F-P5)], the values for the Kd in assay [4], in [6] and in assay [7] were 30.9 ± 2.6 µM, 0.264 ± 0.041 µM and 0.231 ± 0.014 µM, respectively. In assay [5], this molecule yielded an off-rate (koff) of 0.003 s⁻¹.

B1: GST-Hep1 (yeast Hep1 co-chaperone) (natural protein, yeast (S. cerevisiae), UniProt P42844 48-174, looked up)
chain: NEVKKDDKKVHLGSFKVDKPKMMIAFTCKKCNTRSSHTMSKQAYEKGTVLISCPHCKVRHLIADHLKIFHDHHVTVEQLMKANGEQVSQDVGDLEFEDIPDSLKDVLGKYAKNNSENASQLPHPSQK
Turning to B1, the Kd in assay [8] is about 1.5 µM.
For the molecule LSLPPVKLHC(fluorescein) [fluorescein-labeled Isu1 peptide (F-Isu1)], the affinity in assay [9], expressed as Kd, was 7.07 ± 0.872 µM.
